Assay [1] concerns the target ScaE cohesin of R. flavefaciens FD-1. As to the kind of experiment: ELISA. The conditions noted are these: read off a plot. For orientation: An ELISA detects its analyte on a solid surface through an enzyme-linked reagent.
The target in assay [2] is dockerin D61 (group 6) of R. flavefaciens FD-1 (Ruminococcus flavefaciens FD-1). As to the kind of experiment: ITC; 10-uL aliquots of 80-180 uM cohesin injected into 20-30 uM thioredoxin-fused dockerin; 308.16 K; 50 mM Na-HEPES pH 7.5, 2 mM CaCl2, 0.5 mM TCEP; single-site model. Background: In ITC the heat of successive injections is recorded.
Assay [3] deals with dockerin D37 (group 3) of R. flavefaciens FD-1 (Ruminococcus flavefaciens FD-1). The assay is described as above.
Assay [4] addresses group-6 dockerin D61, thioredoxin-fused (pETG-20A) (Ruminococcus flavefaciens FD-1). As to the kind of experiment: ITC; thioredoxin-fused dockerin (20-30 uM) in the cell, cohesin (80-180 uM) injected; 308.16 K; 50 mM Na-HEPES pH 7.5, 2 mM CaCl2, 0.5 mM TCEP; single-site model.
Assay [5] deals with group-3 dockerin D37, thioredoxin-fused (pETG-20A) (Ruminococcus flavefaciens FD-1). Described as above.
Assay [6] has as its target ScaH dockerin D49, thioredoxin-fused (pETG-20A) (Ruminococcus flavefaciens FD-1). The description is as above.
The target in assay [7] is group-2 dockerin D35 (ZP_06143271), thioredoxin-fused (pETG-20A) (Ruminococcus flavefaciens FD-1). The description is as above.

other: pEC50, Ka and stoichiometry N data for nine substances are collected here from paper PMC5301203.

As usually defined, the stoichiometry N is the number of molecules, sites or subunits per partner or assembly.

Sequence of ScaH dockerin D49, thioredoxin-fused (pETG-20A) (Ruminococcus flavefaciens FD-1) (main, as listed by the source): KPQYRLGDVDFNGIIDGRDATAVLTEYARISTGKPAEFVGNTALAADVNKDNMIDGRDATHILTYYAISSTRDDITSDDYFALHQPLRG

As to “dockerin of the peptidase ZP_06142181 (Peptidase-UNK-Doc) G11A; R12A”, in assay [1] (parent: est. 8.6), the other: pEC50 was determined as 8.6.
Turning to “ScaC cohesin of R. flavefaciens FD-1 (domain or fragment)”, in assay [2], the Ka is 1e+08 M⁻¹ and the stoichiometry N turned out to be 1. In assay [3], the Ka was 1e+08 M⁻¹ and the stoichiometry N stood at 1.
For “dockerin of ScaH, ZP_06142361 (Coh-Doc) G11A; R12A; G50A; R51A”, the other: pEC50 in assay [1] (parent: est. 10.2) is 9.1.
“dockerin of the peptidase ZP_06142181 (Peptidase-UNK-Doc) G11A; R12A; G50A; R51A”: in assay [1] (parent: est. 8.6), the other: pEC50 is 7.6.
The same measure, in the same setting: as for “dockerin of the peptidase ZP_06142181 (Peptidase-UNK-Doc) G50A; R51A”, the figure is 8.2.
“dockerin of ScaH, ZP_06142361 (Coh-Doc) G50A; R51A”: the other: pEC50 in assay [1] (parent: est. 10.2) came to 9.9.
On the same count and under the same terms, as for “dockerin of ScaH, ZP_06142361 (Coh-Doc) G11A; R12A”, the figure is 10.
Consider “ScaC cohesin, His-tagged (pET21a) (domain or fragment)”, for which the Ka worked out at 3.54e+08 M⁻¹ in assay [4] and 2.69e+08 M⁻¹ in assay [5].
As for “ScaE cohesin, His-tagged (pET21a) (domain or fragment)”, the figures for the Ka in assay [6] and in assay [7] were 1.56e+06 M⁻¹ and 6.17e+07 M⁻¹, respectively.
